Publication PMC4498328

Experiments:
[1] = target: Barley yellow dwarf virus-GPV readthrough protein (RTP), AcGFP1 fusion (Barley yellow dwarf virus-GPV); test: co-IP; chemiluminescent Co-IP: pAcGFP1-bait and pProLabel-prey cotransfected into HEK293 cells, lysed after 48 h, anti-GFP polyclonal antibody and protein A/G agarose beads, ProLabel activity read as relative light units; negative control pAcGFP1-Lam/pProLabel-T
[2] = target: Barley yellow dwarf virus-GPV coat protein (CP), AcGFP1 fusion (Barley yellow dwarf virus-GPV); test: as above

“twinstar, ProLabel fusion (natural protein)” gave a relative strength of the interaction against the negative control (times the negative control) [1] of 7.1.
“nascent polypeptide-associated complex subunit alpha, ProLabel fusion (natural protein)” showed a relative strength of the interaction against the negative control (times the negative control) [2] of 1.6 and a relative strength of the interaction against the negative control (times the negative control) [1] of 4.9.
Substance “complexin, ProLabel fusion (natural protein)” has a relative strength of the interaction against the negative control (times the negative control) [1] of 5.6.
“pancreatic lipase-related protein, ProLabel fusion (natural protein)” was tested, and the relative strength of the interaction against the negative control (times the negative control) [2] was 3 and the relative strength of the interaction against the negative control (times the negative control) [1] was 23.
“cytochrome c oxidase polypeptide IV-like, ProLabel fusion (natural protein)” was tested, and the relative strength of the interaction against the negative control (times the negative control) [1] was 4.2.
“tropomyosin, ProLabel fusion (natural protein)” showed a relative strength of the interaction against the negative control (times the negative control) [1] of 8.7.
“cytochrome P450 4g15, ProLabel fusion (natural protein)” was tested, and the relative strength of the interaction against the negative control (times the negative control) [1] was 3.4.
